Experimental data from article PMC10585736, “Analyses of POL30 (PCNA) reveal positional effects in transient repression or bi-modal active/silent state at the sub-telomeres of S. cerevisiae” (Epigenetics & Chromatin, 2023).
Changes are numbered by the printed parent chain.

T1: Rrm3p-Myc (S. cerevisiae, UniProt P38766 1-723)
T1 construct: Rrm3p DNA helicase, S. cerevisiae; source: expressed from a low copy plasmid in the POL30-0 and mutant pol30 yeast strains, in lysate
T1 sequence (looked up): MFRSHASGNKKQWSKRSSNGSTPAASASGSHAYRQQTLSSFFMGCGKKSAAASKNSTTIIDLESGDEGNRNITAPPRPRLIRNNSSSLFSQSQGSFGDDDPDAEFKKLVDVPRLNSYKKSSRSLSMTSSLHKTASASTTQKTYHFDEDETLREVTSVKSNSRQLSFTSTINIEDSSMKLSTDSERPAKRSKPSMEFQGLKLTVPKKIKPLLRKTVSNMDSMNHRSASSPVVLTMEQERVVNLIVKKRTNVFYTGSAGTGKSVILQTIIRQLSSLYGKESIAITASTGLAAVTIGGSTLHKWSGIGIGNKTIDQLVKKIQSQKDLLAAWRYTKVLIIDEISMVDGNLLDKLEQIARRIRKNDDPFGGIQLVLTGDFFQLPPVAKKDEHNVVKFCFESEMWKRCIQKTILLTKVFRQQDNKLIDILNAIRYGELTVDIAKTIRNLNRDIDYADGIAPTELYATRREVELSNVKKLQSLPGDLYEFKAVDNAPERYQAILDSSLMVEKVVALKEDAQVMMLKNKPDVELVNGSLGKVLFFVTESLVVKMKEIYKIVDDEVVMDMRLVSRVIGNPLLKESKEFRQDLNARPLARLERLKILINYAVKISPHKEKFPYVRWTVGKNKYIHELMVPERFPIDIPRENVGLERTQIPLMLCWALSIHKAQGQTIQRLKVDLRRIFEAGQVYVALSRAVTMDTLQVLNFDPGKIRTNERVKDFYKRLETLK

B1: pol30-6 mutant Pol30p of the pol30-6 strain (natural protein, S. cerevisiae, UniProt P15873 1-258, looked up)
chain: MLEAKFEEASLFKRIIDGFKDCVQLVNFQCKEDGIIAQAVAASRVLLVSLEIGVEAFQEYRCDHPVTLGMDLTSLSKILRCGNNTDTLTLIADNTPDSIILLFEDTKKDRIAEYSLKLMDIDADFLKIEELQYDSTLSLPSSEFSKIVRDLSQLSDSINIMITKETIKFVADGDIGSGSVIIKPFVDMEHPETSIKLEMDQPVDLTFGAKYLLDIIKGSSLSDRVGIRLSSEAPALFQFDLKSGFLQFFLAPKFNDEE
notes: Pol30p (PCNA), S. cerevisiae, double alanine substitutions at Asp 41 and Asp 42; detected with α-PCNA; also called Pol30-6p; source: expressed in the pol30-6 mutant yeast strain, in lysate
B2: pol30-8 mutant Pol30p of the pol30-8 strain (natural protein, S. cerevisiae, UniProt P15873 1-258, looked up)
chain: B1 chain with A41D, A42D, R61A, D63A
notes: Pol30p (PCNA), S. cerevisiae, double alanine substitutions at Arg 61 and Asp 63; detected with α-PCNA; also called Pol30-8p; source: expressed in the pol30-8 mutant yeast strain, in lysate

Target: T1, Rrm3p-Myc
Test: co-IP; Cac1p-FLAG and Rrm3p-Myc from low copy plasmids in the POL30-0 and mutant pol30 strains; α-FLAG or α-Myc precipitation from lysate in IP buffer (150 mM NaCl, 50 mM Tris pH 7.5, 2 mM EDTA), washes with 0.2% Triton X100 + 0.01% SDS, elution with FLAG or Myc peptide, blot with α-PCNA
Conditions: partners not purified

| Binder | fold reduction of co-precipitated Pol30p against wild-type Pol30p [fold] |
| --- | --- |
| B1 | 5 |
| B2 | < 2 |
